# Experimental data published in IntAct's records for PubMed 25910212.
# B1: Claudin-19 (Homo sapiens), Q8N6F1-2 (parent)
# chain: MANSGLQLLGYFLALGGWVGIIASTALPQWKQSSYAGDAIITAVGLYEGLWMSCASQSTGQVQCKLYDSLLALDGHIQSARALMVVAVLLGFVAMVLSVVGMKCTRVGDSNPIAKGRVAIAGGALFILAGLCTLTAVSWYATLVTQEFFNPSTPVNARYEFGPALFVGWASAGLAVLGGSFLCCTCPEPERPNSSPQPYRPGPSAAAREYV
# partner: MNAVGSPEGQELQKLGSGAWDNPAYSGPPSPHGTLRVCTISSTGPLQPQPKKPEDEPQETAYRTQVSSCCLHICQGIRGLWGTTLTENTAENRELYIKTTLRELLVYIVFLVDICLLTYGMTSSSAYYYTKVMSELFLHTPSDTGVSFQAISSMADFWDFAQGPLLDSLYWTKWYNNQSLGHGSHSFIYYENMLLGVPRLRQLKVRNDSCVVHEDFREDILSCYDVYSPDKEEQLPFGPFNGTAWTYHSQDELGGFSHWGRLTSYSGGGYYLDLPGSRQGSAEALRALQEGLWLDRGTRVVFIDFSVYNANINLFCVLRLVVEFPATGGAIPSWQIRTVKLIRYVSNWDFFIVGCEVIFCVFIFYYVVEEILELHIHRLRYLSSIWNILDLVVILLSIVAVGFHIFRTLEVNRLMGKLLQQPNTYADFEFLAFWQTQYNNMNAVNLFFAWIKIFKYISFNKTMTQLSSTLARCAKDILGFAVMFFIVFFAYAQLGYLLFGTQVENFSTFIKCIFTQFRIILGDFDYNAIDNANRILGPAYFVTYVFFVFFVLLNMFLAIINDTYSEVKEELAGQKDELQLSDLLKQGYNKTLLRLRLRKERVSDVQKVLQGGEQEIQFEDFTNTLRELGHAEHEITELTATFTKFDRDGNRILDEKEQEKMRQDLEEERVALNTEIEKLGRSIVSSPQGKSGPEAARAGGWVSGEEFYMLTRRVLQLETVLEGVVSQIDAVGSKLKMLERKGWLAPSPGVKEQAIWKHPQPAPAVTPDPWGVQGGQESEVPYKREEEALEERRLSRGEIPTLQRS
# B2: Carbonic anhydrase-related protein (Homo sapiens), P35219 (parent)
# chain: MADLSFIEDTVAFPEKEEDEEEEEEGVEWGYEEGVEWGLVFPDANGEYQSPINLNSREARYDPSLLDVRLSPNYVVCRDCEVTNDGHTIQVILKSKSVLSGGPLPQGHEFELYEVRFHWGRENQRGSEHTVNFKAFPMELHLIHWNSTLFGSIDEAVGKPHGIAIIALFVQIGKEHVGLKAVTEILQDIQYKGKSKTIPCFNPNTLLPDPLLRDYWVYEGSLTIPPCSEGVTWILFRYPLTISQLQIEEFRRLRTHVKGAELVEGCDGILGDNFRPTQPLSDRVIRAAFQ
# partner: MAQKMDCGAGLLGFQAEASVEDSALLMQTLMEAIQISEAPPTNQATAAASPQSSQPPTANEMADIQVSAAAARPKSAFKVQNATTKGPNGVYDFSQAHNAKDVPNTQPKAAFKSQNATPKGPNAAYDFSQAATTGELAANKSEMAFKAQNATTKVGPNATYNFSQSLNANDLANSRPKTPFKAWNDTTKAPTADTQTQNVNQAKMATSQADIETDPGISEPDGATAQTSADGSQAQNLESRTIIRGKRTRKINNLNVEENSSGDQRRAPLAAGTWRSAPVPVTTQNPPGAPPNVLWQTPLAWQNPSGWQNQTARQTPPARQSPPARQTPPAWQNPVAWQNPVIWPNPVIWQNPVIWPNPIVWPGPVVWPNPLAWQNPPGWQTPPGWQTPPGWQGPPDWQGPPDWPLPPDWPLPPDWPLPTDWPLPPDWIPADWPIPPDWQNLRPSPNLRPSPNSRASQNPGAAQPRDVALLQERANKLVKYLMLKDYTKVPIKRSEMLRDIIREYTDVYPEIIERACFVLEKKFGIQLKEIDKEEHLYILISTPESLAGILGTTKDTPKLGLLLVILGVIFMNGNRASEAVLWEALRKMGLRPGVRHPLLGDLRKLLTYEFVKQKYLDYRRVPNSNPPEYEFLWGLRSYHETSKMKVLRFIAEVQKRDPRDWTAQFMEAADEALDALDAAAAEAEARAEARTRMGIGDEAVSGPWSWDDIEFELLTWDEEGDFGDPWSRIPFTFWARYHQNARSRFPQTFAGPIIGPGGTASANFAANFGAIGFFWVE
# B3: Galactose-1-phosphate uridylyltransferase (Homo sapiens), P07902 (parent)
# chain: MSRSGTDPQQRQQASEADAAAATFRANDHQHIRYNPLQDEWVLVSAHRMKRPWQGQVEPQLLKTVPRHDPLNPLCPGAIRANGEVNPQYDSTFLFDNDFPALQPDAPSPGPSDHPLFQAKSARGVCKVMCFHPWSDVTLPLMSVPEIRAVVDAWASVTEELGAQYPWVQIFENKGAMMGCSNPHPHCQVWASSFLPDIAQREERSQQAYKSQHGEPLLMEYSRQELLRKERLVLTSEHWLVLVPFWATWPYQTLLLPRRHVRRLPELTPAERDDLASIMKKLLTKYDNLFETSFPYSMGWHGAPTGSEAGANWNHWQLHAHYYPPLLRSATVRKFMVGYEMLAQAQRDLTPEQAAERLRALPEVHYHLGQKDRETATIA
# B4: Carbonic anhydrase-related protein (Homo sapiens), P35219 (parent)
# chain: B2 chain
# partner: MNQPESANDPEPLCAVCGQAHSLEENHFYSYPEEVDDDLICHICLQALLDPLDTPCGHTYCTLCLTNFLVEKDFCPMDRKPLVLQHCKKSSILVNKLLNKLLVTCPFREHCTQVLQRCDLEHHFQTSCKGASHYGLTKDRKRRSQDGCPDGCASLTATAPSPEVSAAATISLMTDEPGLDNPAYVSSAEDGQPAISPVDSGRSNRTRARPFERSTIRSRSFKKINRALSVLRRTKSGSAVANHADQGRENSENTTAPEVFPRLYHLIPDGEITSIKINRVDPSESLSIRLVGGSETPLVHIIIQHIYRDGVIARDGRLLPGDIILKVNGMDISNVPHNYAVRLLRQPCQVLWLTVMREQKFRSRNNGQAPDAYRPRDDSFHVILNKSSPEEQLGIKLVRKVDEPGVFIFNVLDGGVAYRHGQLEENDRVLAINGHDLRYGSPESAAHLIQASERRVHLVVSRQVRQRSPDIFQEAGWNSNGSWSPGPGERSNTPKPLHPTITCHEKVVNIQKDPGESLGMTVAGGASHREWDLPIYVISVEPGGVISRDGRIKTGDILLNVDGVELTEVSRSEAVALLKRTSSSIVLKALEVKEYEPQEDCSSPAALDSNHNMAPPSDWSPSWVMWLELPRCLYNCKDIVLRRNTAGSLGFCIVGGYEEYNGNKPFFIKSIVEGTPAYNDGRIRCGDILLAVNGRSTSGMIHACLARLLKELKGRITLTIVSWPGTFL
# B5: Cullin-4B (Homo sapiens), Q13620 (parent)
# chain: MMSQSSGSGDGNDDEATTSKDGGFSSPSPSAAAAAQEVRSATDGNTSTTPPTSAKKRKLNSSSSSSSNSSNEREDFDSTSSSSSTPPLQPRDSASPSTSSFCLGVSVAASSHVPIQKKLRFEDTLEFVGFDAKMAEESSSSSSSSSPTAATSQQQQLKNKSILISSVASVHHANGLAKSSTTVSSFANSKPGSAKKLVIKNFKDKPKLPENYTDETWQKLKEAVEAIQNSTSIKYNLEELYQAVENLCSYKISANLYKQLRQICEDHIKAQIHQFREDSLDSVLFLKKIDRCWQNHCRQMIMIRSIFLFLDRTYVLQNSMLPSIWDMGLELFRAHIISDQKVQNKTIDGILLLIERERNGEAIDRSLLRSLLSMLSDLQIYQDSFEQRFLEETNRLYAAEGQKLMQEREVPEYLHHVNKRLEEEADRLITYLDQTTQKSLIATVEKQLLGEHLTAILQKGLNNLLDENRIQDLSLLYQLFSRVRGGVQVLLQQWIEYIKAFGSTIVINPEKDKTMVQELLDFKDKVDHIIDICFLKNEKFINAMKEAFETFINKRPNKPAELIAKYVDSKLRAGNKEATDEELEKMLDKIMIIFRFIYGKDVFEAFYKKDLAKRLLVGKSASVDAEKSMLSKLKHECGAAFTSKLEGMFKDMELSKDIMIQFKQYMQNQNVPGNIELTVNILTMGYWPTYVPMEVHLPPEMVKLQEIFKTFYLGKHSGRKLQWQSTLGHCVLKAEFKEGKKELQVSLFQTLVLLMFNEGEEFSLEEIKQATGIEDGELRRTLQSLACGKARVLAKNPKGKDIEDGDKFICNDDFKHKLFRIKINQIQMKETVEEQASTTERVFQDRQYQIDAAIVRIMKMRKTLSHNLLVSEVYNQLKFPVKPADLKKRIESLIDRDYMERDKENPNQYNYIA
# partner: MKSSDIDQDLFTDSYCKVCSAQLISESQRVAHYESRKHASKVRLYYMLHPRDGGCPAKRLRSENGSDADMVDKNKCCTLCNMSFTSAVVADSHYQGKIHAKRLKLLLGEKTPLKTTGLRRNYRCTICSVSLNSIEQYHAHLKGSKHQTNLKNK
# Variants of: B1
# Conditions: with pk2l1_human PKD2L1, Q9P0L9
row,effect of a mutation on the interaction,Variant
1,disrupting interaction strength,L90P
2,with no effect,R200Q
3,disrupting interaction strength,G20D

# Variants of: B2
# Conditions: with magd1_human MAGED1, Q9Y5V3
row,effect of a mutation on the interaction,Variant
1,disrupting interaction strength,S100P

# Variants of: B3
# Conditions: with TNK2, Q07912-2
# TNK2, Q07912-2, sequence (Q07912 other isoform, or with tags, fused parts or gaps): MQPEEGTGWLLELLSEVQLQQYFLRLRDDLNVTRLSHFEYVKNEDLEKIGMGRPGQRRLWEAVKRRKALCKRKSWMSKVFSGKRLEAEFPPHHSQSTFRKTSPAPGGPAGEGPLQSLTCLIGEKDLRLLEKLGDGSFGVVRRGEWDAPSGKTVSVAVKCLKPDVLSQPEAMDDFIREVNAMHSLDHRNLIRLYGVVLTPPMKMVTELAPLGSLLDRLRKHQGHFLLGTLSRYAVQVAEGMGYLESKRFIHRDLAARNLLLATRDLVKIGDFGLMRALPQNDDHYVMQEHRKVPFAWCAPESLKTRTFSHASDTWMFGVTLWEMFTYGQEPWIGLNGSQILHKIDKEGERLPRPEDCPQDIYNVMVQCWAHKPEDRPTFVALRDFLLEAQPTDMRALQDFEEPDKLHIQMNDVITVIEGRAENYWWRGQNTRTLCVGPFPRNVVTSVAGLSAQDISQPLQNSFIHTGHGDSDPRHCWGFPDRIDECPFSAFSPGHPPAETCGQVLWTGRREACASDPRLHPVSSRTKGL
row,effect of a mutation on the interaction,Variant
1,with no effect,R272H
2,with no effect,H319Q

# The next lines start with the variant.
row,Variant,effect of a mutation on the interaction
1,G175D,with no effect
2,Y34N,with no effect

# Variants of: B4
# Conditions: with lnx1_human LNX1, Q8TBB1
row,effect of a mutation on the interaction,Variant
1,disrupting interaction strength,S100P

# Variants of: B5
# Conditions: with ZMAT4, Q9H898-2
row,effect of a mutation on the interaction,Variant
1,with no effect,V745A
